Like-named read-outs stand apart in the source and are kept apart here.
Experiments:
[1] = biological target: T1, folate receptor 1 (FOLR1) (human, UniProt P15328 25-234); test: flow cytometry binding on T47D cells
[2] = biological target: T1, folate receptor 1 (FOLR1); test: flow cytometry binding on T47D cells; remark: listed apart in the source

T1 sequence (P15328 25-234): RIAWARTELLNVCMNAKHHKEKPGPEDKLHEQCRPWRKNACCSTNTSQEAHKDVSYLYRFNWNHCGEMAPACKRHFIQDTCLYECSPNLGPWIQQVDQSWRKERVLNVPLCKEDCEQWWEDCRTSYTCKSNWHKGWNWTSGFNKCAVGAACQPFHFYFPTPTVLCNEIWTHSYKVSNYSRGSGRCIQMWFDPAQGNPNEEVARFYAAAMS

B1: huMOV19 antibody (antibody, V domains shown)
VH: QVQLVQSGAEVVKPGASVKISCKASGYTFTGYFMNWVKQSPGQSLEWIGRIHPYDGDTFYNQKFQGKATLTVDKSSNTAHMELLSLTSEDFAVYYCTRYDGSRAMDYWGQGTTVTVSS
VL: DIVLTQSPLSLAVSLGQPAIISCKASQSVSFAGTSLMHWYHQKPGQQPRLLIYRASNLEAGVPDRFSGSGSKTDFTLTISPVEAEDAATYYCQQSREYPYTFGGGTKLEIKR
EC50 [1]: 0.314 nM
EC50 [2]: 0.144 nM
